Test results as given in patent publication US11111295.

Biological target: human claudin 18A2 (CLD18A2) (human)
Experiment: cell-based or functional assay

human claudin 18A2 (CLD18A2) (human), sequence (chain, as listed by the source limits assumed, form in doubt): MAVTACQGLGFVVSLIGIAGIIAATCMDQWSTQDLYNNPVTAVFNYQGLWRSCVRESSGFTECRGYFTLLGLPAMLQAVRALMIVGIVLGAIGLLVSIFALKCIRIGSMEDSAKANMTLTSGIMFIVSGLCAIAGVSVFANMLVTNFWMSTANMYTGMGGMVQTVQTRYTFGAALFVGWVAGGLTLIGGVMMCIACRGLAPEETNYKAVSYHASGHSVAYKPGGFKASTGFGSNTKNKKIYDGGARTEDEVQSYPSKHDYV

In the case of hu8E5-28Z chimeric antigen receptor, the CAR-T cytotoxicity on AGS-A2 cells, effector-to-target ratio 3:1 is reported as over 60% and the CAR-T cytotoxicity on BGC-823-A2 cells, effector-to-target ratio 3:1 is reported as over 90%.
